# Results: the supplement of paper PMC10598134
# ± gives the standard deviation.
# Assay: collision cross section of modified peptide (TIMS, N2, iRT-aligned); higher = larger / more extended gas-phase ion
# Method in brief: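 Collision cross section was derived from the Mason-Schamp equation. Each value averages 1–3 technical replicates of the most abundant feature per charge state, measured on a timsTOF Pro/HT in dda-PASEF mode (nitrogen, ~2.4 mbar) after a 120-min nanoflow C18 gradient at 60 °C. Synthetic peptide pools (~100 fmol/µL in 2% acetonitrile/0.1% formic acid, iRT standard spiked 1:40) were identified with MaxQuant, and 1/K0 was calibrated with three reference ions and aligned run-wise to the median iRT peptide deviation.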
# [1] = charge state: 2, modification: Crotonyl
# [2] = charge state: 2, modification: Dimethyl (K)
# [3] = charge state: 3, modification: Dimethyl (K)
# [4] = charge state: 2, modification: Formyl
# [5] = charge state: 2, modification: Glutarylation
# [6] = charge state: 2, modification: GlyGly (K)
# [7] = charge state: 3, modification: GlyGly (K)
# [8] = charge state: 2, modification: Malonyl
# [9] = charge state: 2, modification: Methyl (K)
# [10] = charge state: 3, modification: Methyl (K)
# [11] = charge state: 2, modification: Propionyl
# [12] = charge state: 2, modification: Succinyl
# [13] = charge state: 2, modification: Trimethyl (K)
# [14] = charge state: 3, modification: Trimethyl (K)
# [15] = charge state: 2, modification: hydroxyisobutyryl
# [16] = charge state: 2, modification: Nitro (Y)
# [17] = charge state: 3, modification: Nitro (Y)
# [18] = charge state: 2, modification: Phospho (Y)
# [19] = charge state: 3, modification: Phospho (Y)
# [20] = charge state: 2, modification: Acetyl (K)
# [21] = charge state: 2, modification: Biotin
# [22] = charge state: 2, modification: Butyryl
# [23] = charge state: 3, modification: Acetyl (K)
# [24] = charge state: 3, modification: Biotin
# [25] = charge state: 3, modification: Butyryl
# [26] = charge state: 3, modification: Glutarylation
sequence,measurement,setting,value
LAEEENKAK [_LAEEENK(Crotonyl)AK_],collision cross section,[1],351.41 ± 1.1 Å²
LAEEENKAK [_LAEEENK(Dimethyl (K))AK_],collision cross section,[2],348.03 ± 0.59 Å²
same,collision cross section,[3],411.22 ± 2.8 Å²
LAEEENKAK [_LAEEENK(Formyl)AK_],collision cross section,[4],342.64 ± 1.5 Å²
LAEEENKAK [_LAEEENK(Gluratylation)AK_],collision cross section,[5],353.09 ± 0.078 Å²
LAEEENKAK [_LAEEENK(GlyGly (K))AK_],collision cross section,[6],356.17 ± 0.39 Å²
same,collision cross section,[7],428.57 ± 0.75 Å²
LAEEENKAK [_LAEEENK(Malonyl)AK_],collision cross section,[8],346.72 ± 0.74 Å²
LAEEENKAK [_LAEEENK(Methyl (K))AK_],collision cross section,[9],347.67 ± 0.66 Å²
same,collision cross section,[10],422.11 Å²
LAEEENKAK [_LAEEENK(Propionyl)AK_],collision cross section,[11],352.31 ± 0.33 Å²
LAEEENKAK [_LAEEENK(Succinyl)AK_],collision cross section,[12],348.59 ± 0.23 Å²
LAEEENKAK [_LAEEENK(Trimethyl (K))AK_],collision cross section,[13],353.67 ± 0.62 Å²
same,collision cross section,[14],413.12 Å²
LAEEENKAK [_LAEEENK(hydroxyisobutyryl)AK_],collision cross section,[15],355.52 ± 0.78 Å²
LAEQEAHYAVR [_LAEQEAHY(Nitro (Y))AVR_],collision cross section,[16],388.92 ± 0.55 Å²
same,collision cross section,[17],469.49 ± 1.9 Å²
LAEQEAHYAVR [_LAEQEAHY(Phospho (Y))AVR_],collision cross section,[18],408.57 ± 0.76 Å²
same,collision cross section,[19],482.98 ± 0.1 Å²
LAPEYEAAATR [_LAPEY(Nitro (Y))EAAATR_],collision cross section,[16],362.69 ± 1.2 Å²
same,collision cross section,[17],436.11 ± 1.1 Å²
LAPEYEAAATR [_LAPEY(Phospho (Y))EAAATR_],collision cross section,[18],374.2 ± 0.063 Å²
LDEKENLSAK [_LDEK(Acetyl (K))ENLSAK_],collision cross section,[20],366.13 ± 0.94 Å²
LDEKENLSAK [_LDEK(Biotin)ENLSAK_],collision cross section,[21],382.87 Å²
LDEKENLSAK [_LDEK(Butyryl)ENLSAK_],collision cross section,[22],370.93 ± 0.84 Å²
LDEKENLSAK [_LDEK(Crotonyl)ENLSAK_],collision cross section,[1],370.68 ± 0.26 Å²
LDEKENLSAK [_LDEK(Dimethyl (K))ENLSAK_],collision cross section,[2],364.75 ± 0.28 Å²
same,collision cross section,[3],441.27 Å²
LDEKENLSAK [_LDEK(Formyl)ENLSAK_],collision cross section,[4],361.57 ± 0.88 Å²
LDEKENLSAK [_LDEK(Gluratylation)ENLSAK_],collision cross section,[5],373.82 ± 0.62 Å²
LDEKENLSAK [_LDEK(GlyGly (K))ENLSAK_],collision cross section,[6],379.07 ± 1.5 Å²
same,collision cross section,[7],437.31 ± 1.9 Å²
LDEKENLSAK [_LDEK(Malonyl)ENLSAK_],collision cross section,[8],361.65 ± 0.75 Å²
LDEKENLSAK [_LDEK(Methyl (K))ENLSAK_],collision cross section,[9],366.29 ± 0.55 Å²
LDEKENLSAK [_LDEK(Propionyl)ENLSAK_],collision cross section,[11],369.99 ± 0.94 Å²
LDEKENLSAK [_LDEK(Succinyl)ENLSAK_],collision cross section,[12],369.34 ± 0.74 Å²
LDEKENLSAK [_LDEK(Trimethyl (K))ENLSAK_],collision cross section,[13],376.2 ± 0.61 Å²
same,collision cross section,[14],441.92 ± 3.4 Å²
LDEKENLSAK [_LDEK(hydroxyisobutyryl)ENLSAK_],collision cross section,[15],373.33 ± 0.28 Å²
LDHLAEKFR [_LDHLAEK(Acetyl (K))FR_],collision cross section,[20],371.59 ± 0.95 Å²
same,collision cross section,[23],438.53 ± 3.2 Å²
LDHLAEKFR [_LDHLAEK(Biotin)FR_],collision cross section,[24],452.58 Å²
LDHLAEKFR [_LDHLAEK(Butyryl)FR_],collision cross section,[22],377.54 ± 1.3 Å²
same,collision cross section,[25],440.5 ± 3.8 Å²
LDHLAEKFR [_LDHLAEK(Crotonyl)FR_],collision cross section,[1],378.01 ± 0.89 Å²
same,collision cross section,"charge state: 3, modification: Crotonyl",440.09 ± 1.3 Å²
LDHLAEKFR [_LDHLAEK(Dimethyl (K))FR_],collision cross section,[2],368.82 ± 0.36 Å²
same,collision cross section,[3],433.76 ± 2.1 Å²
LDHLAEKFR [_LDHLAEK(Formyl)FR_],collision cross section,[4],364.92 ± 0.89 Å²
same,collision cross section,"charge state: 3, modification: Formyl",435.6 ± 2.1 Å²
LDHLAEKFR [_LDHLAEK(Gluratylation)FR_],collision cross section,[5],375.69 ± 0.099 Å²
same,collision cross section,[26],446.6 ± 1.7 Å²
LDHLAEKFR [_LDHLAEK(GlyGly (K))FR_],collision cross section,[6],374.05 ± 1.1 Å²
same,collision cross section,[7],449.01 ± 1.6 Å²
LDHLAEKFR [_LDHLAEK(Malonyl)FR_],collision cross section,[8],366.99 ± 1.7 Å²
LDHLAEKFR [_LDHLAEK(Methyl (K))FR_],collision cross section,[9],368.51 ± 0.5 Å²
same,collision cross section,[10],450.7 ± 4.8 Å²
LDHLAEKFR [_LDHLAEK(Propionyl)FR_],collision cross section,"charge state: 3, modification: Propionyl",442.11 ± 0.59 Å²
LDHLAEKFR [_LDHLAEK(Succinyl)FR_],collision cross section,[12],369.4 ± 0.74 Å²
same,collision cross section,"charge state: 3, modification: Succinyl",444.17 ± 3.4 Å²
LDHLAEKFR [_LDHLAEK(Trimethyl (K))FR_],collision cross section,[14],436.32 ± 0.025 Å²
LDHLAEKFR [_LDHLAEK(hydroxyisobutyryl)FR_],collision cross section,[15],375.94 ± 0.8 Å²
same,collision cross section,"charge state: 3, modification: hydroxyisobutyryl",444.1 ± 2 Å²
LDINTNTYTSQDLK [_LDINTNTYTS(HexNAc (ST))QDLK_],collision cross section,"charge state: 2, modification: HexNAc (ST)",444.16 ± 0.035 Å²
LDLSSLAYSGK [_LDLSSLAY(Nitro (Y))SGK_],collision cross section,[16],385.74 ± 0.17 Å²
LDLSSLAYSGK [_LDLSSLAY(Phospho (Y))SGK_],collision cross section,[18],374.73 ± 0.68 Å²
LDYSDFQIVK [_LDY(Nitro (Y))SDFQIVK_],collision cross section,[16],369.5 ± 0.55 Å²
LDYSDFQIVK [_LDY(Phospho (Y))SDFQIVK_],collision cross section,[18],374.72 ± 0.79 Å²
LEENHYNTYISK [_LEENHYNTY(Nitro (Y))ISK_],collision cross section,[16],425.11 ± 1.1 Å²
same,collision cross section,[17],478.71 ± 0.24 Å²
LEENHYNTYISK [_LEENHYNTY(Phospho (Y))ISK_],collision cross section,[18],422.15 ± 0.06 Å²
same,collision cross section,[19],477.33 ± 1 Å²
LEEVTGKLQVAR [_LEEVTGK(Acetyl (K))LQVAR_],collision cross section,[20],391.97 ± 0.61 Å²
same,collision cross section,[23],467.89 Å²
LEEVTGKLQVAR [_LEEVTGK(Biotin)LQVAR_],collision cross section,[21],414.01 ± 0.23 Å²
same,collision cross section,[24],494.02 ± 0.34 Å²
LEEVTGKLQVAR [_LEEVTGK(Butyryl)LQVAR_],collision cross section,[22],398.95 ± 0.23 Å²
same,collision cross section,[25],467.68 Å²
LEEVTGKLQVAR [_LEEVTGK(Crotonyl)LQVAR_],collision cross section,[1],398.71 ± 0.79 Å²
LEEVTGKLQVAR [_LEEVTGK(Dimethyl (K))LQVAR_],collision cross section,[2],394.61 ± 0.25 Å²
same,collision cross section,[3],471.08 ± 2.1 Å²
LEEVTGKLQVAR [_LEEVTGK(Formyl)LQVAR_],collision cross section,[4],388.92 ± 0.55 Å²
LEEVTGKLQVAR [_LEEVTGK(Gluratylation)LQVAR_],collision cross section,[5],400.05 ± 0.12 Å²
same,collision cross section,[26],468.97 Å²
LEEVTGKLQVAR [_LEEVTGK(GlyGly (K))LQVAR_],collision cross section,[6],407.08 ± 0.86 Å²
same,collision cross section,[7],463.74 ± 1.1 Å²
LEEVTGKLQVAR [_LEEVTGK(Malonyl)LQVAR_],collision cross section,[8],393.19 ± 0.021 Å²
LEEVTGKLQVAR [_LEEVTGK(Methyl (K))LQVAR_],collision cross section,[9],393.19 ± 1.7 Å²
same,collision cross section,[10],474.94 ± 3.5 Å²
LEEVTGKLQVAR [_LEEVTGK(Propionyl)LQVAR_],collision cross section,[11],394.4 ± 1.3 Å²
LEEVTGKLQVAR [_LEEVTGK(Succinyl)LQVAR_],collision cross section,[12],394.87 ± 0.77 Å²
LEEVTGKLQVAR [_LEEVTGK(Trimethyl (K))LQVAR_],collision cross section,[13],402.01 ± 1.1 Å²
same,collision cross section,[14],471.9 ± 1.5 Å²
LEEVTGKLQVAR [_LEEVTGK(hydroxyisobutyryl)LQVAR_],collision cross section,[15],399.92 ± 0.3 Å²
LEKDYQPGITFIVVQK [_LEKDYQP(Hydroxyproline)GITFIVVQK_],collision cross section,"charge state: 2, modification: Hydroxyproline",457.03 ± 0.32 Å²
same,collision cross section,"charge state: 3, modification: Hydroxyproline",487.95 ± 1.3 Å²
LEKTIDDLEEK [_LEK(Acetyl (K))TIDDLEEK_],collision cross section,[20],403.37 ± 1 Å²
LEKTIDDLEEK [_LEK(Biotin)TIDDLEEK_],collision cross section,[21],422.95 ± 1.4 Å²
LEKTIDDLEEK [_LEK(Butyryl)TIDDLEEK_],collision cross section,[22],409.44 ± 0.57 Å²
LEKTIDDLEEK [_LEK(Crotonyl)TIDDLEEK_],collision cross section,[1],409.2 ± 1.1 Å²
LEKTIDDLEEK [_LEK(Dimethyl (K))TIDDLEEK_],collision cross section,[2],401.15 ± 1.1 Å²
same,collision cross section,[3],461.19 ± 2.1 Å²
LEKTIDDLEEK [_LEK(Formyl)TIDDLEEK_],collision cross section,[4],399.8 ± 0.55 Å²
LEKTIDDLEEK [_LEK(Gluratylation)TIDDLEEK_],collision cross section,[5],410.17 ± 1.1 Å²
LEKTIDDLEEK [_LEK(GlyGly (K))TIDDLEEK_],collision cross section,[6],403.14 ± 0.36 Å²
same,collision cross section,[7],473.69 ± 1.1 Å²
LEKTIDDLEEK [_LEK(Malonyl)TIDDLEEK_],collision cross section,[8],405.85 ± 0.59 Å²
